{"source": "patent US7276370", "about": "(DONALD DANFORTH PLANT SCIENCE CENTER, dated 2007)", "target": "the molecule itself", "test": "EMSA, E. coli protein extract with 32P-labeled BoxIIml DNA probe; homodimer inferred from the shifted band", "protocol": "FIG. 5: Electrophoretic mobility shift assay (EMSA) of Rf2a and the 3Δ mutant of Rf2a. Oligonucleotides containing the BoxIIml sequences (Yin et al., 1997a) were used as ^32P-labeled probe or an unlabeled competitor in an EMSA with 500 ng of *E. coli* protein containing 3Δ protein or Rf2a. Unbound probe is located near the bottom of the gel. The band with the greatest mobility in lanes 1, 2, 4, and 5 indicated by x is presumed to result from binding with an uncharacterized protein that co-purifies with the target protein. Lane 1, protein prepared from *E. coli* without induction. Lane 2, reaction with extracts of *E. coli* that produce Rf2a. Lane 3, reaction with equimolar amounts of Rf2a and 3Δ plus 80× fold molar excess of unlabeled competitor probe relative to the labeled probe. Lane 4, reaction with equimolar amounts of Rf2a and 3Δ. Lane 5, reaction with 3Δ.\nElectrophoretic mobility shift assays (EMSAs). EMSAs were carried out essentially as described by Yin and Beachy (7). 500 ng of *E. coli* protein extracts were incubated with 32_P labeled DNA probes comprising Box IIml that was constructed using annealed oligonucleotides (10). For competition EMSA, unlabeled oligonucleotides were added to the binding reactions at 80 fold molar excess relative to the labeled probe (see FIG. 5).", "data": [{"protein": "Rf2a transcription factor (other, The 5' primer encodes an extra Met-Glu-Lys before MNREKS; Crude E. coli protein extract was used in the EMSA; also called rice transcription factor Rf2a) MNREKSPIPGDGGDGLPPQATRRAGPPAAAAAAEYDISRMPDFPTRNPGHRRAHSEILSLPEDLDLCAAGGGDGPSLSDENDEELFSMFLDVEKLNSTCGASSEAEAESSSAAAHGARPKHQHSLSMDESMSIKAEELVGASPGTEGMSSAEAKKAVSAVKLAELALVDPKRAKRIWANRQSAARSKERKMRYIAELERKVQTLQTEATTLSAQLALLQRDTSGLTTENSELKLRLQTMEQQVHLQDALNDTLKSEVQRLKVATGQMANGGGMMMNFGGMPHQFGGNQQMFQNNQAMQSMLAAHQLQQLQLHPQAQQQQVLHPQHQQQQPLHPLQAQQLQQAARDLKMKSPMGGQSQWGDGKSGSSGN", "values": [{"measurement": "binding result", "value": "binds"}]}]}
